The target in the assay is stand-alone thioesterase (TE) domain of the 6-deoxyerythronolide B synthase (DEBS). The assay can be described thus: SEC.

For the substance “stand-alone thioesterase (TE) domain of the 6-deoxyerythronolide B synthase (DEBS) (domain or fragment)”, the stoichiometry N came out at 2.

Usually stoichiometry N stands for a count of units in the complex or per binding partner.
